Numbering of substitutions follows the chain as printed. Names may count otherwise. Each block holds one binder with its values, some of them ahead of it.
How the values were obtained:
CD3 = CD3 (Homo sapiens (Human), UniProt P07766 23-207; P04234 22-171; P09693 23-182); assay: cell-based or functional assay
CD55 = target: T1, CD55 (UniProt P08174 35-353, limits assumed); assay: binding at 5 µg/ml against the unmutated antibody (SEQ ID NO: 14 + 15); format not stated
T1 construct: whole, on cells; also called CD55 on Rituximab resistant Raji cells (RRCL)
T1 sequence (looked up): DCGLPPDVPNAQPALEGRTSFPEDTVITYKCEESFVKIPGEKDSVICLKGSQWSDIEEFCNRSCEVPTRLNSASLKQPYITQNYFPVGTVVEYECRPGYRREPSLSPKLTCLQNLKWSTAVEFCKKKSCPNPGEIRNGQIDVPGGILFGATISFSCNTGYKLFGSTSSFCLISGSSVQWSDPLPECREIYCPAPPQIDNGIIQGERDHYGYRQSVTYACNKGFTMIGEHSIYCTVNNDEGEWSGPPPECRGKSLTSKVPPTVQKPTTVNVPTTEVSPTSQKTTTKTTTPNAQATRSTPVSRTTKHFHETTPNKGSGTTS

Chain of CD3 (P07766 23-207 limits assumed, chain 1 of 3): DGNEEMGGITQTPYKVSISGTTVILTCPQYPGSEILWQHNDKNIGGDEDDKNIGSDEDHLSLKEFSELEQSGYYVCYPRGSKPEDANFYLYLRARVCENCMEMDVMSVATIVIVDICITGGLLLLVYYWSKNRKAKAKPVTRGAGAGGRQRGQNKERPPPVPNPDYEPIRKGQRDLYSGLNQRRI
Chain of CD3 (P04234 22-171 limits assumed, chain 2 of 3): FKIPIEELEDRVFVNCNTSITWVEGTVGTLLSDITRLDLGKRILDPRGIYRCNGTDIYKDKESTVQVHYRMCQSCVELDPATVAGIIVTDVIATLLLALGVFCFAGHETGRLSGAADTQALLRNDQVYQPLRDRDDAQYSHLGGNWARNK
Chain of CD3 (P09693 23-182 limits assumed, chain 3 of 3): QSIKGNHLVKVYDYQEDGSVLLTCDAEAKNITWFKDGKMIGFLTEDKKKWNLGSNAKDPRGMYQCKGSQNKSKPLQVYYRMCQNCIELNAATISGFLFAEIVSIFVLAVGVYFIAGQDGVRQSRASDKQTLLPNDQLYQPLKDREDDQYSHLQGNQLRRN

B1: CD20/CD3 BsMab with common VL (SEQ ID NO: 3) H33S (bispecific antibody, V domains shown)
VH 1: QVQLQQPGAELVKPGASVKMSCKASGYTFTSYNMHWVKQTPGRGLEWIGAIYPGNGDTSYNQKFKGKATLTADKSSSTAYMQLSSLRSEDSAVYYCARSTYYGGDWYFNVWGAGTTVTVSA
VH 2: EVQLQESGAELARPGASVKMSCKASGYTFTSYTMHWVKQRPGEGLEWIGYINPSSGYTKYNQKFKDKATLTADKSSSTAYMELSSLTSEDSAVYYCARWQDYDVYFDYWGEGTTLTVSS
VL: QIVLSQSPAILSASPGEKVTMTCRASSSVSYISWFQQKPGSSPKPWIYATSNLASGVPVRFSGSGSGTSYSLTISRVEAEDAATYYCQQWTSNPPTFGGGTKLEIKR
Function % 0.025 ug/ml (T cell activation, CD69 on Jurkat cells with Raji cells, against the unmutated baseline) (CD3): 108%
Function % 2 ug/ml (T cell activation, CD69 on Jurkat cells with Raji cells, against the unmutated baseline) (CD3): 95%

B2: CD20/CD3 BsMab with common VL (SEQ ID NO: 3) N93L (bispecific antibody, V domains shown)
VH 1: B1 VH 1
VH 2: B1 VH 2
VL: B1 VL with S33H, N93L
Function % 0.025 ug/ml (T cell activation, CD69 on Jurkat cells with Raji cells, against the unmutated baseline) (CD3): 9%
Function % 2 ug/ml (T cell activation, CD69 on Jurkat cells with Raji cells, against the unmutated baseline) (CD3): 65%

B3: CD20/CD3 BsMab with common VL (SEQ ID NO: 3) Q88G (bispecific antibody, V domains shown)
VH 1: B1 VH 1
VH 2: B1 VH 2
VL: B1 VL with S33H, Q88G
Function % 0.025 ug/ml (T cell activation, CD69 on Jurkat cells with Raji cells, against the unmutated baseline) (CD3): 8%
Function % 2 ug/ml (T cell activation, CD69 on Jurkat cells with Raji cells, against the unmutated baseline) (CD3): 39%

B4: CD20/CD3 BsMab with common VL (SEQ ID NO: 3) Q88Y (bispecific antibody, V domains shown)
VH 1: B1 VH 1
VH 2: B1 VH 2
VL: B1 VL with S33H, Q88Y
Function % 0.025 ug/ml (T cell activation, CD69 on Jurkat cells with Raji cells, against the unmutated baseline) (CD3): 8%
Function % 2 ug/ml (T cell activation, CD69 on Jurkat cells with Raji cells, against the unmutated baseline) (CD3): 21%

B5: CD20/CD3 BsMab with common VL (SEQ ID NO: 3) Q88P (bispecific antibody, V domains shown)
VH 1: B1 VH 1
VH 2: B1 VH 2
VL: B1 VL with S33H, Q88P
Function % 0.025 ug/ml (T cell activation, CD69 on Jurkat cells with Raji cells, against the unmutated baseline) (CD3): 7%
Function % 2 ug/ml (T cell activation, CD69 on Jurkat cells with Raji cells, against the unmutated baseline) (CD3): 16%

B6: CD20/CD3 BsMab with common VL (SEQ ID NO: 3) Q88V (bispecific antibody, V domains shown)
VH 1: B1 VH 1
VH 2: B1 VH 2
VL: B1 VL with S33H, Q88V
Function % 0.025 ug/ml (T cell activation, CD69 on Jurkat cells with Raji cells, against the unmutated baseline) (CD3): 14%
Function % 2 ug/ml (T cell activation, CD69 on Jurkat cells with Raji cells, against the unmutated baseline) (CD3): 75%

B7: CD20/CD3 BsMab with common VL (SEQ ID NO: 3) Q88H (bispecific antibody, V domains shown)
VH 1: B1 VH 1
VH 2: B1 VH 2
VL: B1 VL with S33H, Q88H
Function % 0.025 ug/ml (T cell activation, CD69 on Jurkat cells with Raji cells, against the unmutated baseline) (CD3): 12%
Function % 2 ug/ml (T cell activation, CD69 on Jurkat cells with Raji cells, against the unmutated baseline) (CD3): 36%

B8: CD20/CD3 BsMab with common VL (SEQ ID NO: 3) Q88M (bispecific antibody, V domains shown)
VH 1: B1 VH 1
VH 2: B1 VH 2
VL: B1 VL with S33H, Q88M
Function % 0.025 ug/ml (T cell activation, CD69 on Jurkat cells with Raji cells, against the unmutated baseline) (CD3): 27%
Function % 2 ug/ml (T cell activation, CD69 on Jurkat cells with Raji cells, against the unmutated baseline) (CD3): 95%

B9: CD20/CD3 BsMab with common VL (SEQ ID NO: 3) H33M (bispecific antibody, V domains shown)
VH 1: B1 VH 1
VH 2: B1 VH 2
VL: B1 VL with S33M
Function % 0.025 ug/ml (T cell activation, CD69 on Jurkat cells with Raji cells, against the unmutated baseline) (CD3): 13%
Function % 2 ug/ml (T cell activation, CD69 on Jurkat cells with Raji cells, against the unmutated baseline) (CD3): 74%

B10: CD20/CD3 BsMab with common VL (SEQ ID NO: 3) N93C (bispecific antibody, V domains shown)
VH 1: B1 VH 1
VH 2: B1 VH 2
VL: B1 VL with S33H, N93C
Function % 0.025 ug/ml (T cell activation, CD69 on Jurkat cells with Raji cells, against the unmutated baseline) (CD3): 16%
Function % 2 ug/ml (T cell activation, CD69 on Jurkat cells with Raji cells, against the unmutated baseline) (CD3): 77%

B11: CD20/CD3 BsMab with common VL (SEQ ID NO: 3) Q88L (bispecific antibody, V domains shown)
VH 1: B1 VH 1
VH 2: B1 VH 2
VL: B1 VL with S33H, Q88L
Function % 0.025 ug/ml (T cell activation, CD69 on Jurkat cells with Raji cells, against the unmutated baseline) (CD3): 8%
Function % 2 ug/ml (T cell activation, CD69 on Jurkat cells with Raji cells, against the unmutated baseline) (CD3): 55%

B12: anti-CD55 antibody with CD55VH (SEQ ID NO: 14) N52C and VL (SEQ ID NO: 15) (antibody, V domains shown)
VH: QVKLQESGGGLVQPGGSLKLSCAASGFTFSGYGMSWIRQTPDKRLEWVATICSGGSYTYYSDSVKGRFTISRDNVKNTLYLQMSSLKSEDTAMYYCARRNGTLYYYLMDYWGRGTLVTVSS
VL: QSVLTQPPSASGSPGQSVTISCTGTSSDVGGYNYVSWYQQHPGKAPKFMIYDVSKRPSGVSNRFSGSKSGNTASLTISGVQAEDEADYYCSSYTSASTVIFGGGTKLTVL
notes: also called Test 3
Function remaining percentage (5 µg/ml) (CD55): 32%

B22: anti-CD55 antibody with CD55VH (SEQ ID NO: 14) N52M and VL (SEQ ID NO: 15) (antibody, V domains shown)
VH: B12 VH with C52M
VL: B12 VL
notes: also called Test 8
Function remaining percentage (5 µg/ml) (CD55): 16%

B23: anti-CD55 antibody with CD55VH (SEQ ID NO: 14) N52E and VL (SEQ ID NO: 15) (antibody, V domains shown)
VH: B12 VH with C52E
VL: B12 VL
notes: also called Test 6
Function remaining percentage (5 µg/ml) (CD55): 21%

B24: anti-CD55 antibody with CD55VH (SEQ ID NO: 14) N52G and VL (SEQ ID NO: 15) (antibody, V domains shown)
VH: B12 VH with C52G
VL: B12 VL
notes: also called Test 4
Function remaining percentage (5 µg/ml) (CD55): 28%

B29: anti-CD55 antibody with CD55VH (SEQ ID NO: 14) N52L and VL (SEQ ID NO: 15) (antibody, V domains shown)
VH: B12 VH with C52L
VL: B12 VL
notes: also called Test 10
Function remaining percentage (5 µg/ml) (CD55): 15%

Further lines, results first:

Function remaining percentage (5 µg/ml) (CD55): 11%
B13: anti-CD55 antibody with CD55VH (SEQ ID NO: 14) N52P and VL (SEQ ID NO: 15) (antibody, V domains shown)
VH: B12 VH with C52P
VL: B12 VL
notes: also called Test 11

Function remaining percentage (5 µg/ml) (CD55): 86%
B14: anti-CD55 antibody with CD55VH (SEQ ID NO: 14) N100F and VL (SEQ ID NO: 15) (antibody, V domains shown)
VH: B12 VH with C52N, N100F
VL: B12 VL
notes: also called Test 18

Function remaining percentage (5 µg/ml) (CD55): 62%
B15: anti-CD55 antibody with CD55VH (SEQ ID NO: 14) N100I and VL (SEQ ID NO: 15) (antibody, V domains shown)
VH: B12 VH with C52N, N100I
VL: B12 VL
notes: also called Test 23

Function remaining percentage (5 µg/ml) (CD55): 72%
B16: anti-CD55 antibody with CD55VH (SEQ ID NO: 14) N100H and VL (SEQ ID NO: 15) (antibody, V domains shown)
VH: B12 VH with C52N, N100H
VL: B12 VL
notes: also called Test 21

Function remaining percentage (5 µg/ml) (CD55): 17%
B17: anti-CD55 antibody with CD55VH (SEQ ID NO: 14) N100E and VL (SEQ ID NO: 15) (antibody, V domains shown)
VH: B12 VH with C52N, N100E
VL: B12 VL
notes: also called Test 24

Function remaining percentage (5 µg/ml) (CD55): 21%
B18: anti-CD55 antibody with CD55VH (SEQ ID NO: 14) N52V and VL (SEQ ID NO: 15) (antibody, V domains shown)
VH: B12 VH with C52V
VL: B12 VL
notes: also called Test 5

Function remaining percentage (5 µg/ml) (CD55): 83%
B19: anti-CD55 antibody with CD55VH (SEQ ID NO: 14) N100A and VL (SEQ ID NO: 15) (antibody, V domains shown)
VH: B12 VH with C52N, N100A
VL: B12 VL
notes: also called Test 20

Function remaining percentage (5 µg/ml) (CD55): 86%
B20: anti-CD55 antibody with CD55VH (SEQ ID NO: 14) N100M and VL (SEQ ID NO: 15) (antibody, V domains shown)
VH: B12 VH with C52N, N100M
VL: B12 VL
notes: also called Test 19

Function remaining percentage (5 µg/ml) (CD55): 62%
B21: anti-CD55 antibody with CD55VH (SEQ ID NO: 14) N100Q (printed "N1000") and VL (SEQ ID NO: 15) (antibody, V domains shown)
VH: B12 VH with C52N, N100Q
VL: B12 VL
notes: The cell prints "N1000"; also called Test 22

Function remaining percentage (5 µg/ml) (CD55): 17%
B25: anti-CD55 antibody with CD55VH (SEQ ID NO: 14) N52W and VL (SEQ ID NO: 15) (antibody, V domains shown)
VH: B12 VH with C52W
VL: B12 VL
notes: also called Test 7

Function remaining percentage (5 µg/ml) (CD55): 95%
B26: anti-CD55 antibody with CD55VH (SEQ ID NO: 14) N100Y and VL (SEQ ID NO: 15) (antibody, V domains shown)
VH: B12 VH with C52N, N100Y
VL: B12 VL
notes: also called Test 16

Function remaining percentage (5 µg/ml) (CD55): 96%
B27: anti-CD55 antibody with CD55VH (SEQ ID NO: 14) N100T and VL (SEQ ID NO: 15) (antibody, V domains shown)
VH: B12 VH with C52N, N100T
VL: B12 VL
notes: also called Test 14

Function remaining percentage (5 µg/ml) (CD55): 95%
B28: anti-CD55 antibody with CD55VH (SEQ ID NO: 14) N52S and VL (SEQ ID NO: 15) (antibody, V domains shown)
VH: B12 VH with C52S
VL: B12 VL
notes: also called Test 2

Function remaining percentage (5 µg/ml) (CD55): 17%
B30: anti-CD55 antibody with CD55VH (SEQ ID NO: 14) N52Y and VL (SEQ ID NO: 15) (antibody, V domains shown)
VH: B12 VH with C52Y
VL: B12 VL
notes: also called Test 9

Function remaining percentage (5 µg/ml) (CD55): 106%
B31: anti-CD55 antibody with CD55VH (SEQ ID NO: 14) N100K and VL (SEQ ID NO: 15) (antibody, V domains shown)
VH: B12 VH with C52N, N100K
VL: B12 VL
notes: also called Test 13

Function remaining percentage (5 µg/ml) (CD55): 92%
B32: anti-CD55 antibody with CD55VH (SEQ ID NO: 14) N100L and VL (SEQ ID NO: 15) (antibody, V domains shown)
VH: B12 VH with C52N, N100L
VL: B12 VL
notes: also called Test 17

Function remaining percentage (5 µg/ml) (CD55): 94%
B33: anti-CD55 antibody with CD55VH (SEQ ID NO: 14) N100V and VL (SEQ ID NO: 15) (antibody, V domains shown)
VH: B12 VH with C52N, N100V
VL: B12 VL
notes: also called Test 15
